The target of data set [1] is TupBlac (Tupanvirus deep ocean MBL fold protein AUL78925.1) (Tupanvirus deep ocean, UniProt A0AC62AAK8). Kind of data set: LC-MS of penicillin G hydrolysis and benzylpenilloic acid formation. Type of data set: biochemical. The settings on record: sulbactam 10 µg/mL, penicillin G 10 µg/mL, room temperature, up to 48 h; inhibition qualitative, mechanism not determined.
Data set [2] deals with O=C(Cc1cccs1)N[C@@H]1C(=O)N2C(C(=O)O)=C(/C=C/c3ccc([N+](=O)[O-])cc3[N+](=O)[O-])CS[C@H]12. The data set can be described thus: purified protein. The settings on record: PBS pH 7.4, promiscuous beta-lactamase activity.

Consider `CC1(C)[C@H](C(=O)O)N2C(=O)C[C@H]2S1(=O)=O` [sulbactam], for which the “LC-MS of penicillin G hydrolysis and benzylpenilloic acid formation” value in data set [1] is “both penicillin G degradation and benzylpenilloic acid appearance were inhibited by sulbactam”. In general, Km refers to the substrate concentration at which the rate is half of its maximum. Turning to “TupBlac (Tupanvirus deep ocean MBL fold protein AUL78925.1) (Tupanvirus deep ocean)”, in data set [2], the Km was 160 ± 5 µM and the kcat is 8.8 × 10^–4 ± 8.5 × 10^–5 s^−1.

The record behind these values is article PMC7729979, “A protein of the metallo-hydrolase/oxidoreductase superfamily with both beta-lactamase and ribonuclease activity is linked with translation in giant viruses” (Scientific Reports, 2020).
